From the supplement of paper PMC9170038

Tested on: MS2 coat protein
Assay: apparent KD of MS2 coat protein; designed switch direction (-1 OFF switch, 1 ON switch): -1; higher = weaker reporter binding
Outline: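 The apparent KD reported per design is the median over clusters of curve fits to normalised cluster fluorescence. The RNA switches were transcribed on Illumina chips by stalled E. coli RNA polymerase. SNAP-549-labelled MS2 coat protein was titrated from 0.7 or 1.5 nM, doubling up to 3 µM, in Tris-HCl pH 7.5 buffer containing KCl, MgCl2, BSA, DTT, tRNA and Tween-20, with no input, 200 uM small-molecule ligand, or an oligonucleotide input.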

[1] = Eterna round: R95, input ligand: microRNA oligo, concentration not stated
[2] = Eterna round: R95, input ligand: FMN 200 uM
[3] = Eterna round: R95, input ligand: none
[4] = input ligand: microRNA oligo, concentration not stated

UUUUUACAUGAGGAUCACCCAUGUCAGGAUAUCAUUAUAUUUUAUUAUUUUAUUUAUAUGAGAAGGGACUAUUA [My solution] (puzzle: Exclusion 1)
apparent KD of MS2 coat protein [1]: 93.8 nM

CUUAGACAUGAGGAUCACCCAUGUGAGGAUAUGAUGCGAAUAAAGAAAGAAGAAAGCAUCAGAAGGCACAUAUG [Fiskers Ex 1 - 1] (puzzle: Exclusion 1)
apparent KD of MS2 coat protein [2]: 111 nM | apparent KD of MS2 coat protein [1]: 121 nM | apparent KD of MS2 coat protein [3]: 97.9 nM

CUUUAGUGAGGAUAUCAGUAGUAAUACAAUAGUAUUACUACUGAGAAGGCACAUGAGGAUCACCCAUGUUUCUC [Mat - Exclusion 4 - Mod of Omei - D78] (puzzle: Exclusion 4)
apparent KD of MS2 coat protein [1]: 28 nM

UUCGUGCAGCUUUGCUGUACGCGUACAUGAGGAUCACCCAUGUAGGAUAUGGUACGCUUUGCGUGCUAGAAGGAUAUGGAGAGG [JL EXNG3 1.34] (Eterna round: R96, puzzle: Exclusion NG 3)
apparent KD of MS2 coat protein (input ligand: FMN 200 uM): 62.9 nM | apparent KD of MS2 coat protein [4]: 28.7 nM | apparent KD of MS2 coat protein (input ligand: none): 37.6 nM

GGCCCUAAGGUCAGAUCCACAAGCUUUUUGCUCGUUUUAACAUGAGGAUCACCCAUGUCUAGUGGAUCUGAUCCUCA [Sensor v3, turn-off variant 2 (MOD of Indiso v.3)] (puzzle: Sensor v3, turn-off variant 2)
apparent KD of MS2 coat protein [2]: 16.9 nM | apparent KD of MS2 coat protein [1]: 12.1 nM | apparent KD of MS2 coat protein [3]: 20.8 nM

UUCCUACAUGAGGAUCACCCAUGUCAGGAUAUCUCCUCACUGCGCUUGCGCAGUGAAUAGAGAAGGGACAGGCU [JL ViennaUCT Aner mod 1] (puzzle: Exclusion 1)
apparent KD of MS2 coat protein [1]: 15.9 nM

ACGUGAUAUCUGUCGGUGGACAUGAGGAUCACCCAUGUAAGCUUUUUGCUUGUCUUAUAACCCGGUGACAGACCUUC [Inxeer] (puzzle: Sensor v3, turn-off variant 1)
apparent KD of MS2 coat protein [2]: 23.1 nM | apparent KD of MS2 coat protein [1]: 540 nM | apparent KD of MS2 coat protein [3]: 26.5 nM

UUGUUACAUGAGGAUCACCCAUGUGAGGAUAUGAGUCAGUCACGGUGACGUGGCUGACUCAGAAGGCACAAAGG [Mat - Exclusion 1 - JL Mod - D40] (Eterna round: R97, puzzle: Exclusion 1)
apparent KD of MS2 coat protein (input ligand: FMN 200 uM): 310 nM | apparent KD of MS2 coat protein (input ligand: none): 120 nM

UCUCGCGGGCAAGGAUAUCCUACGUUGUUCUGGCCCGUGCAUGUUACAUGAGGAUCACCCAUGUGGGAGAAGGUGCGCCAGGGC [Design 37] (Eterna round: R96, puzzle: Exclusion NG 2)
apparent KD of MS2 coat protein (input ligand: FMN 200 uM): 51.3 nM | apparent KD of MS2 coat protein [4]: 36.7 nM | apparent KD of MS2 coat protein (input ligand: none): 59.8 nM

UCCUUACUUGAGGAUCACCCAAGUCAGGAUAUACACCAGAAUAAAUCCCAGCCCUGGCGUAGAAGGGACGGGUG [Esesle] (Eterna round: R97, puzzle: Exclusion 1)
apparent KD of MS2 coat protein (input ligand: FMN 200 uM): 23 nM | apparent KD of MS2 coat protein (input ligand: none): 25.1 nM

UGCCGUUGAGGAUAUACAUAGAAAUAGAUUCAUGUAAAACUACAUGAGGAUCACCCAUGUAGAAGGCAAUGGCU [Mat - Exclusion 2 - JL Mod - D51] (Eterna round: R97, puzzle: Exclusion 2)
apparent KD of MS2 coat protein (input ligand: FMN 200 uM): 128 nM | apparent KD of MS2 coat protein (input ligand: none): 23.9 nM

AUCGUGCAGCUUUGCUGUACGAGUACAUGAGGAUCACCCAUGUAGGAUAUGGUACGCAAAGCGUGCUAGAAGGAUAUGAGAUUA [Mat - Exclusion NG 3 - Mod of JL - D96] (Eterna round: R96, puzzle: Exclusion NG 3)
apparent KD of MS2 coat protein (input ligand: FMN 200 uM): 24.2 nM | apparent KD of MS2 coat protein [4]: 21.5 nM | apparent KD of MS2 coat protein (input ligand: none): 28.8 nM

CGGUGUAGAGGAUAUACGUGAAUUUUGUUAUAUAAUAAUUUACAUGAGGAUCACCCAUGUAGAAGGCUAUAGCG [JR_Ex2_Sub084] (Eterna round: R97, puzzle: Exclusion 2)
apparent KD of MS2 coat protein (input ligand: FMN 200 uM): 23.4 nM | apparent KD of MS2 coat protein (input ligand: none): 24.2 nM

UAUUAAACAAGCGGAUCCCACAUGAGGAUCACCCAUGUGCUCGUCUUAUAAGGUACUGUGACGAAAGUCACGGUACC [Sensor 3, v1 - 91 v13] (Eterna round: R97, puzzle: Sensor, turn-off variant 1)
apparent KD of MS2 coat protein (input ligand: FMN 200 uM): 25 nM | apparent KD of MS2 coat protein (input ligand: none): 28.9 nM

ACAAGCUUUUUGCUCGGGUACAUGAGGAUCACCCAUGUUUGUGUUUAUUGAGGUUGUGUUGUCGUGCGCUGCAGGUU [JR_SV3TOV1_Sub077] (puzzle: Sensor v3, turn-off variant 1)
apparent KD of MS2 coat protein [2]: 59.3 nM | apparent KD of MS2 coat protein [1]: 38.7 nM | apparent KD of MS2 coat protein [3]: 66.5 nM

UAAUGUAUAUAGGAUAUCUAGCUGGAAACAGCUAGAGAAGGAUGUACAUGAGGAUCACCCAUGUAAAUCAAUAA [Ex6/9-A1] (Eterna round: R97, puzzle: Exclusion 6)
apparent KD of MS2 coat protein (input ligand: FMN 200 uM): 57.5 nM | apparent KD of MS2 coat protein (input ligand: none): 19.5 nM

UCGCCGCCCUUGGGCGGCGACAUGAGGAUCACCCAUGUCAAGCUUUUUGCUCGUUUUAUAGCCGGCCUUGGCCGGCA [Olib_3] (Eterna round: R97, puzzle: Sensor, turn-off variant 1)
apparent KD of MS2 coat protein (input ligand: FMN 200 uM): 27.9 nM | apparent KD of MS2 coat protein (input ligand: none): 29.4 nM

GGAGAGGUAGGAUAUGGAGGUUAAAACAUGAGGAUCACCCAUGUUAAACCUCAUGACCGACUAGAAGGACCAGUCC [AK-MS2ROC-r4-exclusion5-8] (Eterna round: R97, puzzle: Exclusion 5)
apparent KD of MS2 coat protein (input ligand: FMN 200 uM): 15 nM | apparent KD of MS2 coat protein (input ligand: none): 11.1 nM

UAGCAUUGCCAAAGGUAGUGCAUUACAUGAGGAUCACCCAUGUAGGAUAUGGUAGGCAAAGCUUACCAGAAGGACAUGAUAAUU [Mat - Exclusion NG 3 - Mod of JL - D16] (Eterna round: R96, puzzle: Exclusion NG 3)
apparent KD of MS2 coat protein (input ligand: FMN 200 uM): 104 nM | apparent KD of MS2 coat protein [4]: 36.5 nM | apparent KD of MS2 coat protein (input ligand: none): 47.8 nM

CCUUAGUCACAGGAUAUGCUCAUCUAAUGAUGAGCAGAAGGGUGAACAUGAGGAUCACCCAUGUUUACCAGGGU [Omei Ex6 E4] (Eterna round: R97, puzzle: Exclusion 6)
apparent KD of MS2 coat protein (input ligand: FMN 200 uM): 247 nM | apparent KD of MS2 coat protein (input ligand: none): 37.1 nM

GCUGUCACCGUUAGGAUAUGUGAUUAAAUAUGAUCGCAGAAGGAACAUGAGGAUCACCCAUGUCGAUCCGUCCG [Eternabot (L1) Solution 36] (Eterna round: R97, puzzle: Brourd's mod of Exclusion 4)
apparent KD of MS2 coat protein (input ligand: FMN 200 uM): 34.8 nM | apparent KD of MS2 coat protein (input ligand: none): 23.1 nM

AAGGUGUUAGGAUAUCGGAGGUUGAGGCAGACGGGAAUUUUCGAGAAGGAACAUGAGGAUCACCCAUGUAGUAG [JR_Exclu4_Sub038] (puzzle: Exclusion 4)
apparent KD of MS2 coat protein [2]: 19.1 nM | apparent KD of MS2 coat protein [1]: 22.7 nM | apparent KD of MS2 coat protein [3]: 21.3 nM

AUCAGCUCGUGAGGAUAUACAUGCGUGCUUCGGCACGUAUGAUAGAUCACAUGAGGAUCACCCAUGUAGAAGGCACGAGCUGAU [ENG2/4-A3] (Eterna round: R96, puzzle: Exclusion NG 2)
apparent KD of MS2 coat protein (input ligand: FMN 200 uM): 15.1 nM | apparent KD of MS2 coat protein [4]: 12.1 nM | apparent KD of MS2 coat protein (input ligand: none): 13.4 nM

AAAACGUCAGGAUAUCCAAUAUAUGACAUGAGGAUCACCCAUGUUUCCACUCGUACCUCCGGAGAAGGGACUAAUA [Ex5 #84] (Eterna round: R97, puzzle: Exclusion 5)
apparent KD of MS2 coat protein (input ligand: FMN 200 uM): 34.7 nM | apparent KD of MS2 coat protein (input ligand: none): 38.2 nM

CCGGAAAGGAAGGAUAUGCUAGACGAAAGUCUAGCAGAAGGUCCUACAUGAGGAUCACCCAUGUGGCCUCCCGG [Eli x6 4.09] (Eterna round: R97, puzzle: Exclusion 6)
apparent KD of MS2 coat protein (input ligand: FMN 200 uM): 267 nM | apparent KD of MS2 coat protein (input ligand: none): 137 nM
